# Where no end group is shown, it is not given here. The star is where a group is joined. Biotin = O=C1N[C@H]2[C@H](CS[C@H]2CCCCC(=O)*)N1
# T1: G6A/OxCE reaction product (biotin-GDGDGA peptide subjected to the OxCE modification procedure)
# T1 construct: Negative control peptide in which the C-terminal Lys is replaced with Ala
# T1 peptide: Biotin-GDGDGA
# How the values were obtained:
# [1] = target: T1, G6A/OxCE reaction product …; assay: peptide ELISA on streptavidin plates
# Protocol: Biotinylated short peptides G6A-OH, G6K-OH (non-modified) or G6K-OxCE (modified with OxCE) were immobilized to streptavidin pre-coated plates (Eagle Biosciences, Amherst, N.H.), at 10 μg/mL in PBS, overnight at 4° C. After washing with PBS, AG23 was added at 1 μg/mL in 1% BSA-TBS and incubated at room temperature for 90 min. The remaining ELISA was completed as described above.
# [2] = target: T2, copper oxidized LDL (CuOxLDL) (human, UniProt P04114 28-4563, limits assumed, copper-oxidized; enriched in oxidized phospholipid (OxPL); positions not stated); assay: chemiluminescent ELISA on plated antigen
# T2 construct: A modified lipoprotein particle (protein plus lipid), prepared as in Gonen et al
# Protocol: Representative gel and blots from 20 repeats. (B) Representative results of AG23 (0.125 μg/mL) binding to BSA, OxCE-BSA, MDA-LDL and CuOxLDL (5 μg/mL). Four different OxCE-BSA preparations were tested in 12 independent experiments, with AG23 concentrations ranging from […]. […] Mean±SD; one-way ANOVA with multiple comparisons; ****, P<0.0001. (C) Competition ELISA: AG23 (0.01 μg/mL) was preincubated in the absence or presence of increasing concentrations of non-modified KLH or OxCE-KLH. Immune complexes were spun down, and supernatants were tested for binding to OxCE-BSA (5 μg/mL). Each data point is the mean of two independent assays in technical triplicates. (D) AG23 (1 μg/mL) binding to 10 μg/mL of non-modified G6K-OH and G6A-OH peptides, and the peptides subjected to the OxCE covalent modification. […] Mean±SD; n=6 for G6K and n=2 for G6A, each in technical duplicates; one-way ANOVA with multiple comparisons; **, P<0.01. (E-F) AG23 (0.15 μg/mL) was preincubated overnight with non-modified (250 μg/mL) or OxCE-modified (10-250 μg/mL) BSA or GDGDGK-OH peptide. […] After washes, AG23 binding to the wells was measured. […]
# Monoclonal antibody binding to an array of epitopes was measured by chemiluminescent ELISA as described in Gonen et al. In brief, wells were coated with antigens at 5 μg/mL in PBS overnight at 4° C. […]
# T2 sequence (P04114 28-4563 limits assumed): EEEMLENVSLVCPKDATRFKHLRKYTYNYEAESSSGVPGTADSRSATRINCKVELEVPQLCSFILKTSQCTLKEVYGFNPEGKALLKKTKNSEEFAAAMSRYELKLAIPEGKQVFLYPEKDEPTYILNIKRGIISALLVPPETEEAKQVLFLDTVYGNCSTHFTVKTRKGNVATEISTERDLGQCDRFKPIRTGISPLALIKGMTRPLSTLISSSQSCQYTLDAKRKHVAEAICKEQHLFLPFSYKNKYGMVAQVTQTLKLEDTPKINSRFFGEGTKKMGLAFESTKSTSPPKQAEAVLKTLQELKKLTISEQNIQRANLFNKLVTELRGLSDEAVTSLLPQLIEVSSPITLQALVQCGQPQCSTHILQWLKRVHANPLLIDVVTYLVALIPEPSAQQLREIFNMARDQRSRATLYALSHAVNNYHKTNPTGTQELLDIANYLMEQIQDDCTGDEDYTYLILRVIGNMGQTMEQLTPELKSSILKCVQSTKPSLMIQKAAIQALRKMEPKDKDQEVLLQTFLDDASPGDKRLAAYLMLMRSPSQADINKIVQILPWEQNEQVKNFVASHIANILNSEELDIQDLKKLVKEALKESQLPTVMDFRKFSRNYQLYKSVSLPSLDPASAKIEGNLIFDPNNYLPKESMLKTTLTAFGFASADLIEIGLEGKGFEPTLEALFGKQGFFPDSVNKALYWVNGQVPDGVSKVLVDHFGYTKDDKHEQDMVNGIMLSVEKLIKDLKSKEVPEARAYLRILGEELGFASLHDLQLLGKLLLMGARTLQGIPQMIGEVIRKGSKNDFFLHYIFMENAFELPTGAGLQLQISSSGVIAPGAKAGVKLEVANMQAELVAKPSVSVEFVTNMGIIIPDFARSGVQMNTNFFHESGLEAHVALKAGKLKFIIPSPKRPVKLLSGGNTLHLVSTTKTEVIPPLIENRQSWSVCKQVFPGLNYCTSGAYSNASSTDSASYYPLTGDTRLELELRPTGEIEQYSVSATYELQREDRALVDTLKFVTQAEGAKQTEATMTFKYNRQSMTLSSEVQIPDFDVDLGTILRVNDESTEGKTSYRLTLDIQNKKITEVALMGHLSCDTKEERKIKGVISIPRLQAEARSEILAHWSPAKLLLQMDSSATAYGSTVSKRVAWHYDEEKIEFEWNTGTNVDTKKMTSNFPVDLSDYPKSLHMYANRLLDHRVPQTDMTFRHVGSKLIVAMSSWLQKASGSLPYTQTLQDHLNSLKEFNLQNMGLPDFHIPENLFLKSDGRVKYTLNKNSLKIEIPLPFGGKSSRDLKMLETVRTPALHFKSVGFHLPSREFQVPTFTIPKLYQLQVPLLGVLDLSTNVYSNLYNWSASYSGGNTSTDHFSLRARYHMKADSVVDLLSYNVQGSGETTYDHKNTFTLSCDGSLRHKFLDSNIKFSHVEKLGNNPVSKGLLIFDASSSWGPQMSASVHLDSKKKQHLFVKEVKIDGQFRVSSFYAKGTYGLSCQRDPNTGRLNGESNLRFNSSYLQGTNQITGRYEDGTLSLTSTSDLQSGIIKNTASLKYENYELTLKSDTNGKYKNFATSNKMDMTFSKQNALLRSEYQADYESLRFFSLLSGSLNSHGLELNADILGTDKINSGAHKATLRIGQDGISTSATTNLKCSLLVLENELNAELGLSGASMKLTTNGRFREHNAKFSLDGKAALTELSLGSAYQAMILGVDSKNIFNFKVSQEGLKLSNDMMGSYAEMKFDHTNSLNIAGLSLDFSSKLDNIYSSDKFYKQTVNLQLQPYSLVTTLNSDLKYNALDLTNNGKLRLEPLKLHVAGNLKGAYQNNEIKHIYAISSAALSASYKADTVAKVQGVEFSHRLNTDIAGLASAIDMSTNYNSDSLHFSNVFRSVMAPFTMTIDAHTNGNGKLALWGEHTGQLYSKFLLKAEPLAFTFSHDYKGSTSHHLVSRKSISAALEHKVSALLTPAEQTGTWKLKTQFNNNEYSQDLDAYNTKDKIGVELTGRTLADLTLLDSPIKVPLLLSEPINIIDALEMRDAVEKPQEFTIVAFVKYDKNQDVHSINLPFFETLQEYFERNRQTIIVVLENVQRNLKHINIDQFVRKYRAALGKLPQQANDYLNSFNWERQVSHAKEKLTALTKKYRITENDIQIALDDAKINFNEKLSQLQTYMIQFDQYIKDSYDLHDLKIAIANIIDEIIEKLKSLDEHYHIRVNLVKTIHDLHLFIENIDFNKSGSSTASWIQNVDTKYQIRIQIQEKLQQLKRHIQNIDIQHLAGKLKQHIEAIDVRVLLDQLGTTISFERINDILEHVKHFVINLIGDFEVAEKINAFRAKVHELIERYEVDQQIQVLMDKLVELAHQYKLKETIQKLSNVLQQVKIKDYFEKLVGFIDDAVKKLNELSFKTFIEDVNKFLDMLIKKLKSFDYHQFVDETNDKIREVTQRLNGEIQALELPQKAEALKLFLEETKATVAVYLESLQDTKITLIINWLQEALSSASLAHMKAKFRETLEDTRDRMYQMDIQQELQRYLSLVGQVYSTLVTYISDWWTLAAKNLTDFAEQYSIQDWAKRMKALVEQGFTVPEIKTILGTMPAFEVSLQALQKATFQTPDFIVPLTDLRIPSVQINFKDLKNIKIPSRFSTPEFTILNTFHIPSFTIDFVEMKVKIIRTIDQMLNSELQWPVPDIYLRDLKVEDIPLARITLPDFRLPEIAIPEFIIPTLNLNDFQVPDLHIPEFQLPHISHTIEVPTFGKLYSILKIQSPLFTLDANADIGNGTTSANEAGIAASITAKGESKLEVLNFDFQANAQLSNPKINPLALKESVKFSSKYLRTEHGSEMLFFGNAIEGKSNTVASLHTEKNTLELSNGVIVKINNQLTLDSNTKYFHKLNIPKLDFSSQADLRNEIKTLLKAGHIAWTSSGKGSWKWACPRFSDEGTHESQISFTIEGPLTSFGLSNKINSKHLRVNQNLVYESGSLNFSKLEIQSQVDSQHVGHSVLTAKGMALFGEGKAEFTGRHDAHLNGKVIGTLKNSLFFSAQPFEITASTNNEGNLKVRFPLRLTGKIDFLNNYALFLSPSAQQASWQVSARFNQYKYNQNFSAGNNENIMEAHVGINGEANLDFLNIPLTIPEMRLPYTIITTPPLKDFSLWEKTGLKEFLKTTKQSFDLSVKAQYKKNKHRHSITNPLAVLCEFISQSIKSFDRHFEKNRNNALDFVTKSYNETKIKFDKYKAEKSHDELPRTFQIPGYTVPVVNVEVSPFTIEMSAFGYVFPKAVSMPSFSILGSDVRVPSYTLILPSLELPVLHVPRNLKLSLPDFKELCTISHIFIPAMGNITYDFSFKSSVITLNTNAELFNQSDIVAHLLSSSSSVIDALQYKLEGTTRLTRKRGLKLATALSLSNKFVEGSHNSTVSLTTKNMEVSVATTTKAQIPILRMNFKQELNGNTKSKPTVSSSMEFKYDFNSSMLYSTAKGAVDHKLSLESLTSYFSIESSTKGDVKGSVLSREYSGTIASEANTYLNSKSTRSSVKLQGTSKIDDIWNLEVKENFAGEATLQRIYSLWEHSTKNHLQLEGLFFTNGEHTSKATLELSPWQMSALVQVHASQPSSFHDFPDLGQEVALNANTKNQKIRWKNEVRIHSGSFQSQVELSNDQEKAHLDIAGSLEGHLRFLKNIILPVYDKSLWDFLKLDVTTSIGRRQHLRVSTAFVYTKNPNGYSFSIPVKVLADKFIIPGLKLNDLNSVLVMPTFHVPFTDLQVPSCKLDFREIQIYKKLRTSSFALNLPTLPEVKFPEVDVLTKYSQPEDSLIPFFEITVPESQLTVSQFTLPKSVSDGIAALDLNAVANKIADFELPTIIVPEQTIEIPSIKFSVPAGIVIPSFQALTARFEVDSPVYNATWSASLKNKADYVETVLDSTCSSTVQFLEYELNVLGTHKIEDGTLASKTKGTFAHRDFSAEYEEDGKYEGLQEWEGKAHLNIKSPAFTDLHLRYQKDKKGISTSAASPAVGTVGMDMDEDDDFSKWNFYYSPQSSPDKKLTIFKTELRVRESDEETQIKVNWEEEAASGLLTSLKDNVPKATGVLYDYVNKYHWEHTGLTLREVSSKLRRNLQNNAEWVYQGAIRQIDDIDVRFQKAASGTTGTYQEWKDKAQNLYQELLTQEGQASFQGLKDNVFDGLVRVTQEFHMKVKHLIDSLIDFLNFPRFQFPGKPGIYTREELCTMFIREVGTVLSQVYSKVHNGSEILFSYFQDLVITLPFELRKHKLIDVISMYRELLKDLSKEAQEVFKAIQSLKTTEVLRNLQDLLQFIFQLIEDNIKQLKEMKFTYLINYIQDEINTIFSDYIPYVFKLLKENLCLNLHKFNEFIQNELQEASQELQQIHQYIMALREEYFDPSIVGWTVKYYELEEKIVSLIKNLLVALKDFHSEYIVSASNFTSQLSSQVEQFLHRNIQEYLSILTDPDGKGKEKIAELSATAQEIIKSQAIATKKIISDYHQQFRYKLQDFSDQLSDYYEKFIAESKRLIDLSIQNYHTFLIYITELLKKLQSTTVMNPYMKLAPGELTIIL
binder,measurement,setting,value
"monoclonal Ab (mAb) AG23 (antibody, mouse IgG1, kappa, V domains shown, Murine hybridoma IgG purified over Protein A/G; Used biotinylated in some sandwich ELISAs; also called Clone 23; colony #23) VH: EVQLQQSGPELVKPGASVKISCKASGYSFTGYYMNWVRQSPEKNLEWIGEINPYTGGTTYNQKFKARATLTVDKSSSTAYVQLKSLTSEDSAVYFCVSWDYDLDYWGQGTTLTVSS VL: QIVLTQSPAFMSASPGEKVTMTCSASSSVSYMHWYQQKSGTSPKRWIYATSKVASGVPARFSGSGSGTSYSLTISSMEAEDAATYYCLQWSSNPYTFGGGTKLEIKR",binding result,[1],no binding (tested: AG23 1 µg/mL; peptide 10 µg/mL)
same,binding result,[2],no binding (tested: AG23 0.125 µg/mL; antigen 5 µg/mL)

# From patent US20210388116A1 (University of California, published 2021)
